Test results from patent US20250092154A1 (UCI THERAPEUTICS, published 2025).
Values belong to the binder of their own block, whether it stands above or below them.

Legend:
MSLN (ACRO) = target: T1, MSLN (ACRO) (human, UniProt Q13421, PE-conjugated (site not given)); experiment: FACS of PBNK cells transduced with the #19-1 CAR, stained with PE-conjugated MSLN antigen 'MSLN (ACRO)' (B4-A vs SSC-A); also printed as 26%; Mock (empty vector) cells 0.24
T1 construct: soluble antigen, PE-conjugated; also called PE-conjugated MSLN antigen
T1 sequence (Q13421 other isoform, or with tags, fused parts or gaps limits assumed): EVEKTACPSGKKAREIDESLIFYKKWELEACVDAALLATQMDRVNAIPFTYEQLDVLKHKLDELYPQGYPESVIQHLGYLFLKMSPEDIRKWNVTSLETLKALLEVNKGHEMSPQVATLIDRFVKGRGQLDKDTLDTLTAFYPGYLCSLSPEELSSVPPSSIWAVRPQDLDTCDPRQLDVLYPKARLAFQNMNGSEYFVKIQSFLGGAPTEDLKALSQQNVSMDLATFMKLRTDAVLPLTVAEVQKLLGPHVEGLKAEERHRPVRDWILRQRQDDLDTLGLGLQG
Source text: A mesothelin-specific chimeric antigen receptor construct virus was produced in the same manner as in Example 8 above, and then natural killer cells were used as immune 5 effector cells to be genetically engineered to express the chimeric antigen receptor. As such natural killer cells, PBMC (Human PB MNC) cells were purchased from StemCell, cultured for 10 days, and used after differentiation into PBNK cells. PBMC and PBNK cells, as well as lentivirus-transduced PBNK cells described below, were all cultured in NK MACS medium containing 100 µg/mL of streptomycin, 100 units/mL of penicillin, 10 ng/mL of rhIL-15, and 500 IU of rhIL-2. Culture of all cells was performed in a 5% CO₂ (95% air) environment at 37° C. For expression of the mesothelin-specific CAR, 5×10⁵ PBNK cells and the produced antigen receptor construct virus with an MOI of 2 were added to a 24-well plate, and then for induction of transduction, PGE2 (prostaglandin E2) and LentiBOOST (lentiviral gene transfer inducer) were used, thereby generating NK cells expressing the mesothelin-specific CAR. […]

[1] = target: T2, biotinylated mesothelin of SEQ ID NO: 1 (human, UniProt Q13421 296-598, biotinylated (site not stated)); experiment: FACS of 293T cells transduced with the #19-1 CAR, biotinylated mature mesothelin plus PE-streptavidin (B4-A vs SSC-A)
T2 construct: also called biotinylated mature form of the mesothelin antigen
T2 sequence (Q13421 other isoform, or with tags, fused parts or gaps limits assumed): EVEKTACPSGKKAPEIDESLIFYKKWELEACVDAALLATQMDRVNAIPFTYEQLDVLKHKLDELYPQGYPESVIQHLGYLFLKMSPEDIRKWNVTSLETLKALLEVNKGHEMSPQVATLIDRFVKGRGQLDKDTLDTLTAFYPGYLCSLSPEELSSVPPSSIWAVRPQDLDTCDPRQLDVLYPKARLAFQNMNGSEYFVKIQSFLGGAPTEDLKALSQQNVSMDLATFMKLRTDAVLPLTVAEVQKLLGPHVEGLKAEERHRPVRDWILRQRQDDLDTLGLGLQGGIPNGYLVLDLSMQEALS
Procedure: The generated cells were cultured for 2 days. […] Then, biotin was fluorescently labeled using PE-conjugated streptavidin protein and FACS analysis was performed.

[2] = target: T3, recombinant human mature MSLN (SEQ ID NO: 1) (human, UniProt Q13421 296-598); experiment: SPR, mature MSLN immobilized on CM5 chip, #19-1 scFv-Fc injected in two-fold dilutions, 1:1 depletion corrected binding model
T3 construct: Immobilized by amide coupling on a CM5 chip for SPR; also called mesothelin; recombinant human mesothelin protein antigen
Procedure: The binding affinity of the humanized antibody #19-1 purified in Example 6 to mesothelin was evaluated by surface plasmon resonance (SPR) method. First, recombinant human mature MSLN (SEQ ID NO: 1) was immobilized by an amide bond on the surface of a carboxymethyldextran (CM5) chip at densities of about 560 RU and 520 RU. Next, two-fold serial dilutions of humanized antibody #19-1 were injected at a constant flow rate. The association and dissociation rates of the protein complex (complex of humanized antibody #19-1 and mature MSLN) were monitored for 180 and 540 seconds, respectively. Referencing was performed on a blank flow cell. Finally, the binding affinity of humanized antibody #19-1 to mesothelin was determined using the 1:1 depletion corrected binding model.

MSLN mature form-his [3] = target: T4, MSLN mature form-his (human, UniProt Q13421 296-598, biotinylated (site not stated) in the ELISA of Example 2; detected with SA-APC in the yeast single-clone FACS); experiment: Direct-binding ELISA: scFv coated on the plate, biotinylated MSLN mature form-his titrated (M), streptavidin-HRP, A450
T4 construct: also called mesothelin mature form-his antigen; biotinylated MSLN-his; not shown: His tag
Procedure: (§1) 100 ng of the scFv protein purified in Example 1 was added to each well of a plate and refrigerated for 15 hours, thereby coating the plate with the protein. After incubation, each well was blocked with 200 μL of PBS (3% BSA) for 1 hour at room temperature. Biotinylated MSLN-his protein was serially diluted 1/5 from 10⁻⁶ M and then bound to the anti-MSLN scFv, coated on the ELISA plate, for 1 hour at room temperature. Each well was washed three times with PBST (0.05% tween 20) wash buffer, and then treated with HRP-conjugated streptavidin (Abcam) (diluted 40,000:1) for detection of biotinylated […] and incubated at room temperature for 1 hour. Each well was washed three times with PBST (0.05% tween20) wash buffer, and then treated with TMB and incubated at room temperature for 20 minutes. After treatment with 2M H₂SO₄, the absorbance at 450 nm was measured.

MSLN mature form-his [4] = target: T4, MSLN mature form-his; experiment: Direct-binding ELISA: scFv coated on the plate, biotinylated MSLN mature form-his titrated, streptavidin-HRP, A450; the half-maximal value is headed 'IC50 (M)' in the drawn table, row 'Mature MSLN'
Procedure: as §1

% Parent in gate P24 (MSLN (ACRO)): 25.6%
% Parent in gate P4 (cells binding 'Mature MSLN') [1]: 54.8%
B1: mesothelin-specific CAR comprising humanized scFv #19-1, on cells (293T cells; PBNK cells) (receptor)
chain: EIVLTQSPATLSLSPGERATLSCSASSSVSYMHWYQQKPGQAPRLLIYDTSKLASGIPARFSGSGSGTDFTLTISSLEPEDFAVYYCQQWSSNPLTFGQGTKLEIKRGGGGSGGGGSGGGGSQVQLVQSGAEVKKPGASVKVSCKASGYTFTDYNMNWVRQAPGQGLEWMGVINPNYGTTSYNQKFKGRVTMTRDTSTSTVYMELSSLRSEDTAVYYCARGDYDGAGFAYWGQGTLVTVSSTTTPAPRPPTPAPTIASQPLSLRPEACRPAAGGAVHTRGLDFACDIYIWAPLAGTCGVLLLSLVITLYCKRGRKKLLYIFKQPFMRPVQTTQEEDGCSCRFPEEEEGGCELRVKFSRSADAPAYKQGQNQLYNELNLGRREEYDVLDKRRGRDPEMGGKPRRKNPQEGLYNELQKDKMAEAYSEIGMKGERRRGKGHDGLYQGLSTATKDTYDALHMQALPPR
notes: also called #19-1 CAR; MSLN-CAR

Kd [2]: 80.8 nM
B2: humanized antibody #19-1 (#19-1 scFv-Fc) (Fc fusion)
scFv: EIVLTQSPATLSLSPGERATLSCSASSSVSYMHWYQQKPGQAPRLLIYDTSKLASGIPARFSGSGSGTDFTLTISSLEPEDFAVYYCQQWSSNPLTFGQGTKLEIKRGGGGSGGGGSGGGGSQVQLVQSGAEVKKPGASVKVSCKASGYTFTDYNMNWVRQAPGQGLEWMGVINPNYGTTSYNQKFKGRVTMTRDTSTSTVYMELSSLRSEDTAVYYCARGDYDGAGFAYWGQGTLVTVSS
notes: Expressed in ExpiCHO as #19-1 scFv-Fc and purified by protein A and SEC; also called humanized scFv #19-1; scFv antibody #19-1; not shown: Human IgG-Fc tag fused C-terminal to the scFv, and any hinge or linker to it

EC50 (read off the curve) (MSLN mature form-his [3]): ~8 nM
IC50 (MSLN mature form-his [4]): 9.43 nM
B3: mesothelin-specific scFv #45 (purified from E. coli) (scFv)
scFv: DIVLTQSPAIMSTSPGEKVTMTCTASSSVSYMHWYQQKSGTSPKRWIYDTSKLASGVPARFSGSGSGTSYSLTISRMEAEDAATYYCQQWSSYPLTFGAGTKLEMKRGGGGSGGGGSGGGGSQVQLQQPGAELVKPGASVKLSCKASGYTFTSYWMHWVKQRPGQGLEWIGMIHPNSGGTNYNEKFKSKATLTVDKSSSTAYMQLSSLTSEDSAVYYCARYYYGNYVWYFDVWGTGTTVTVSA
notes: also called anti-MSLN scFv; not shown: His tag (Ni-NTA purification, anti-HISx6 detection) and any other pmopac12 vector tag

EC50 (read off the curve) (MSLN mature form-his [3]): ~3 nM
IC50 (MSLN mature form-his [4]): 2.43 nM
B4: mesothelin-specific scFv #19 (purified from E. coli) (scFv)
scFv: DIVITQSPAIMSASPGEKVTMTCSASSSVSYMHWYQQKSGTSPKRWIYDTSKLASGVPARFSGSGSGTSYSLTISSMEAEDAATYYCQQWSSNPLTFGAGTKLEIKRGGGGSGGGGSGGGGSQVQLQQSGPELVKPGASVKISCKASGYSFTDYNMNWVKQSNGKSLEWIGVINPNYGTTSYNQKFKGKATITADTSSNTAYLQLSSLTSEDSAVYYCAKGDYDGAGFAYWGQGTLVTVSA
notes: also called mouse scFv #19; anti-MSLN scFv; not shown: His tag (Ni-NTA purification, anti-HISx6 detection) and any other pmopac12 vector tag
